How the values were obtained:
Cynomolgus MCSP D3 = target: T1, Cynomolgus MCSP D3 (cynomolgus, UniProt Q6UVK1 1582-2224 (human entry), limits assumed); test: SPR Biacore T200, 25 C, IgG captured on anti-human Fab, MCSP D3 as analyte, 1:1 Langmuir fit
T1 construct: Soluble analyte in SPR
T1 chain: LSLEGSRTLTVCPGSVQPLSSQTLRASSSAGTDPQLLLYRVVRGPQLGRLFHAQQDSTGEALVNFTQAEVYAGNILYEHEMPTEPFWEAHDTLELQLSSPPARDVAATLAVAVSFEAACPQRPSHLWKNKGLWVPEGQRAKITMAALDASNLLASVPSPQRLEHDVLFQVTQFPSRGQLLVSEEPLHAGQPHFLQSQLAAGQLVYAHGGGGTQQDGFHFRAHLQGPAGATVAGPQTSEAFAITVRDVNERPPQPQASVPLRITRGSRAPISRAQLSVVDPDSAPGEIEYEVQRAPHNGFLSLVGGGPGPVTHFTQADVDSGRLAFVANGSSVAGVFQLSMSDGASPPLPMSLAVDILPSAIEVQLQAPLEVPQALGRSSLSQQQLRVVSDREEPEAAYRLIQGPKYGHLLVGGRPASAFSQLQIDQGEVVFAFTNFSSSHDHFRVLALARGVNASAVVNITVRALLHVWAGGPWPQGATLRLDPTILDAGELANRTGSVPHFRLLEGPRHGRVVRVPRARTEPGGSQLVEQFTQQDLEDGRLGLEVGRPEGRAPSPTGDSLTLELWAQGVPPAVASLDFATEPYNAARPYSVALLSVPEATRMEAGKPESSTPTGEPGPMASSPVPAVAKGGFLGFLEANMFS
Procedure: (§1) IgGs were captured on a CM5 sensorchip surface with immobilized anti human Fab. Capture IgG was coupled to the sensorchip surface by direct immobilization of around 10,000 resonance units (RU) at pH 5.0 using the standard amine coupling kit (Biacore, Freiburg/Germany). IgGs are captured for 60 s at 30 nM with 10 μl/min. Human and cynomolgus MCSP D3 were passed at a concentration of 0.49-1000 nM with a flowrate of 30 μl/min through the flow cells over 180 s. The dissociation is monitored for 210 s. Bulk refractive index differences were corrected for by subtracting the response obtained on reference flow cell. Here, the antigens were flown over a surface with immobilized anti-human Fab antibody but on which HBS-EP has been injected rather than anti MCSP IgGs.

Human MCSP D3 = target: T2, Human MCSP D3 (human, UniProt Q6UVK1 1582-2224); test: as above
T2 construct: Soluble analyte in SPR; The selection antigen was hu-MCSP(D3 domain)-avi-his; also called hu-MCSP(D3 domain)-avi-his
T2 sequence: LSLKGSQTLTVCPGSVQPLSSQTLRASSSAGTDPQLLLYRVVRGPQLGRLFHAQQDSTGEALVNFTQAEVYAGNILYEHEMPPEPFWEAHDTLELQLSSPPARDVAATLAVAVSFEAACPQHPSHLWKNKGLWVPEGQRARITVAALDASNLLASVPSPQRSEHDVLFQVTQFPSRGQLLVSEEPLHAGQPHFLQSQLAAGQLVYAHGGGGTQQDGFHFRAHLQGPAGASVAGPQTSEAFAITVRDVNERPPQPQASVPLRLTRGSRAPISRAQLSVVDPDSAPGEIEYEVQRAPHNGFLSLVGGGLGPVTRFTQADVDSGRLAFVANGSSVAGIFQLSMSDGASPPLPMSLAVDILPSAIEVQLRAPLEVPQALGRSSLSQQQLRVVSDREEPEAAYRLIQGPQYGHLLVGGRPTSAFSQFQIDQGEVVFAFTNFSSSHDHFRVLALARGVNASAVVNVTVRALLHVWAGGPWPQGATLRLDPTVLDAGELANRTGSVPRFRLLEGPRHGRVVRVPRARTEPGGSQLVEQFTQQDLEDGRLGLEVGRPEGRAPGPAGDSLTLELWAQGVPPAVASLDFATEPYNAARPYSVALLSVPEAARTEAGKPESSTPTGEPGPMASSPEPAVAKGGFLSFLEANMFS
Procedure: as §1

Binder | Kd (Cynomolgus MCSP D3) [nM] | Kd (Human MCSP D3) [nM]
M4-3 ML2 (parental) (antibody, human IgG1, kappa, V domains shown, Non-matured parental humanized IgG; also called humanized antibody M4-3 ML2) VH: QVQLQESGPGLVKPSQTLSLTCTVSGGSITSGYYWNWIRQHPGKGLEWIGYITYDGSNNYNPSLKSRVTISRDTSKNQFSLKLSSVTAADTAVYYCADFDYWGQGTLVTVSS VL: DIQMTQSPSSLSASVGDRVTITCRASQGIRNYLNWYQQKPGKAPKLLIYYTSSLHSGVPSRFSGSGSGTDFTLTISSLQPEDFATYYCQQYSKLPWTFGQGTKVEIKR | 82.5 | 24.2
M4-3 (C1) ML2 (antibody, human IgG1, V domains shown) VH: QVQLQESGPGLVKPSQTLSLTCTVSGGSITSGYYWNWIRQHPGKGLEWIGYITFDGSNNYNPSLKSRVTISRDTSKNQFSLKLSSVTAADTAVYYCADFDYWGQGTLVTVSS VL: DIQMTQSPSSLSASVGDRVTITCRASQGIRNYLNWYQQKPGKAPKLLIYYTSSLHSGVPSRFSGSGSGTDFTLTISSLQPEDFATYYCQQYSKLPWTFGQGTKVEIK | 9.8 | 7.2
M4-3 (A7) ML2 (antibody, human IgG1, V domains shown) VH: QVQLQESGPGLVKPSQTLSLTCTVSGGSITDGYYWNWIRQHPGKGLEWIGYITFDGRNNYNPSLKSRVTISRDTSKNQFSLKLSSVTAADTAVYYCADFDYWGQGTLVTVSS VL: DIQMTQSPSSLSASVGDRVTITCRASQGIRNYLNWYQQKPGKAPKLLIYYTSSLHSGVPSRFSGSGSGTDFTLTISSLQPEDFATYYCQQYSKLPWTFGQGTKVEIK | 16.3 | 7.1
M4-3 (A7) ML2 (C5) (antibody, human IgG1, V domains shown) VH: QVQLQESGPGLVKPSQTLSLTCTVSGGSITDGYYWNWIRQHPGKGLEWIGYITFDGRNNYNPSLKSRVTISRDTSKNQFSLKLSSVTAADTAVYYCADFDYWGQGTLVTVSS VL: DIQMTQSPSSLSASVGDRVTITCRASRGIREYLNWYQQKPGKAPKLLIYYTGSLHSGVPSRFSGSGSGTDFTLTISSLQPEDFATYYCQQYSELPWTFGQGTKVEIK | 1.1 | 0.002
M4-3 (A7) ML2 (E10) (antibody, human IgG1, V domains shown) VH: QVQLQESGPGLVKPSQTLSLTCTVSGGSITDGYYWNWIRQHPGKGLEWIGYITFDGRNNYNPSLKSRVTISRDTSKNQFSLKLSSVTAADTAVYYCADFDYWGQGTLVTVSS VL: DIQMTQSPSSLSASVGDRVTITCRASYGIRGYLNWYQQKPGKAPKLLIYYTSSLHSGVPSRFSGSGSGTDFTLTISSLQPEDFATYHCQQYSKLPWTFGQGTKVEIK | 8.5 | 3.1
M4-3 (A7) ML2 (G3) (antibody, human IgG1, V domains shown) VH: QVQLQESGPGLVKPSQTLSLTCTVSGGSITDGYYWNWIRQHPGKGLEWIGYITFDGRNNYNPSLKSRVTISRDTSKNQFSLKLSSVTAADTAVYYCADFDYWGQGTLVTVSS VL: DIQMTQSPSSLSASVGDRVTITCRASQGIRNYLNWYQQKPGKAPKLLIYYTSSLHSGVPSRFSGSGSGTDYTLTISSLQPEDFATYYCQQYSALPWTFGQGTKVEIK | 1.5 | 0.009
M4-3 (B7) ML2 (antibody, human IgG1, V domains shown) VH: QVQLQESGPGLVKPSQTLSLTCTVSGGSITSGYYWNWIRQHPGKGLEWIGYITFDGINNYNPSLKSRVTISRDTSKNQFSLKLSSVTAADTAVYYCADFDYWGQGTLVTVSS VL: DIQMTQSPSSLSASVGDRVTITCRASQGIRNYLNWYQQKPGKAPKLLIYYTSSLHSGVPSRFSGSGSGTDFTLTISSLQPEDFATYYCQQYSKLPWTFGQGTKVEIK | 9.9 | 12.6

The next lines start with the values.

Kd (Cynomolgus MCSP D3) [nM] | Kd (Human MCSP D3) [nM] | Binder
1.3 | 1.6 | M4-3 (C1) ML2 (G3) (antibody, human IgG1, kappa, V domains shown) VH: QVQLQESGPGLVKPSQTLSLTCTVSGGSITSGYYWNWIRQHPGKGLEWIGYITFDGSNNYNPSLKSRVTISRDTSKNQFSLKLSSVTAADTAVYYCADFDYWGQGTLVTVSS VL: DIQMTQSPSSLSASVGDRVTITCRASQGIRNYLNWYQQKPGKAPKLLIYYTSSLHSGVPSRFSGSGSGTDYTLTISSLQPEDFATYYCQQYSALPWTFGQGTKVEIKR
28.8 | 19.2 | M4-3 (B8) ML2 (antibody, human IgG1, V domains shown) VH: QVQLQESGPGLVKPSQTLSLTCTVSGGSITSGYYWNWIRQHPGKGLEWIGYITFDGRNNYNPSLKSRVTISRDTSKNQFSLKLSSVTAADTAVYYCADFDYWGQGTLVTVSS VL: DIQMTQSPSSLSASVGDRVTITCRASQGIRNYLNWYQQKPGKAPKLLIYYTSSLHSGVPSRFSGSGSGTDFTLTISSLQPEDFATYYCQQYSKLPWTFGQGTKVEIK
0.12 | 0.003 | M4-3 (C1) ML2 (C5) (antibody, human IgG1, V domains shown) VH: QVQLQESGPGLVKPSQTLSLTCTVSGGSITSGYYWNWIRQHPGKGLEWIGYITFDGSNNYNPSLKSRVTISRDTSKNQFSLKLSSVTAADTAVYYCADFDYWGQGTLVTVSS VL: DIQMTQSPSSLSASVGDRVTITCRASRGIREYLNWYQQKPGKAPKLLIYYTGSLHSGVPSRFSGSGSGTDFTLTISSLQPEDFATYYCQQYSELPWTFGQGTKVEIK
4.5 | 3.9 | M4-3 (C1) ML2 (E10) (antibody, human IgG1, V domains shown) VH: QVQLQESGPGLVKPSQTLSLTCTVSGGSITSGYYWNWIRQHPGKGLEWIGYITFDGSNNYNPSLKSRVTISRDTSKNQFSLKLSSVTAADTAVYYCADFDYWGQGTLVTVSS VL: DIQMTQSPSSLSASVGDRVTITCRASYGIRGYLNWYQQKPGKAPKLLIYYTSSLHSGVPSRFSGSGSGTDFTLTISSLQPEDFATYHCQQYSKLPWTFGQGTKVEIK
24.6 | 15.1 | M4-3 (D6) ML2 (antibody, human IgG1, V domains shown) VH: QVQLQESGPGLVKPSQTLSLTCTVSGGSITSGYYWNWIRQHPGKGLEWIGYITFDGKNNYNPSLKSRVTISRDTSKNQFSLKLSSVTAADTAVYYCADFDYWGQGTLVTVSS VL: DIQMTQSPSSLSASVGDRVTITCRASQGIRNYLNWYQQKPGKAPKLLIYYTSSLHSGVPSRFSGSGSGTDFTLTISSLQPEDFATYYCQQYSKLPWTFGQGTKVEIK
5.7 | 0.8 | M4-3 ML2 (C5) (antibody, human IgG1, V domains shown) VH: QVQLQESGPGLVKPSQTLSLTCTVSGGSITSGYYWNWIRQHPGKGLEWIGYITYDGSNNYNPSLKSRVTISRDTSKNQFSLKLSSVTAADTAVYYCADFDYWGQGTLVTVSS VL: DIQMTQSPSSLSASVGDRVTITCRASRGIREYLNWYQQKPGKAPKLLIYYTGSLHSGVPSRFSGSGSGTDFTLTISSLQPEDFATYYCQQYSELPWTFGQGTKVEIK
12.8 | 4.2 | M4-3 ML2 (C5/G3) (antibody, human IgG1, V domains shown) VH: QVQLQESGPGLVKPSQTLSLTCTVSGGSITSGYYWNWIRQHPGKGLEWIGYITYDGSNNYNPSLKSRVTISRDTSKNQFSLKLSSVTAADTAVYYCADFDYWGQGTLVTVSS VL: DIQMTQSPSSLSASVGDRVTITCRASRGIREYLNWYQQKPGKAPKLLIYYTGSLHSGVPSRFSGSGSGTDFTLTISSLQPEDFATYYCQQYSALPWTFGQGTKVEIK
62.8 | 21.4 | M4-3 ML2 (E10) (antibody, human IgG1, V domains shown) VH: QVQLQESGPGLVKPSQTLSLTCTVSGGSITSGYYWNWIRQHPGKGLEWIGYITYDGSNNYNPSLKSRVTISRDTSKNQFSLKLSSVTAADTAVYYCADFDYWGQGTLVTVSS VL: DIQMTQSPSSLSASVGDRVTITCRASYGIRGYLNWYQQKPGKAPKLLIYYTSSLHSGVPSRFSGSGSGTDFTLTISSLQPEDFATYHCQQYSKLPWTFGQGTKVEIK
12.2 | 5.5 | M4-3 ML2 (E10/G3) (antibody, human IgG1, V domains shown) VH: QVQLQESGPGLVKPSQTLSLTCTVSGGSITSGYYWNWIRQHPGKGLEWIGYITYDGSNNYNPSLKSRVTISRDTSKNQFSLKLSSVTAADTAVYYCADFDYWGQGTLVTVSS VL: DIQMTQSPSSLSASVGDRVTITCRASYGIRGYLNWYQQKPGKAPKLLIYYTSSLHSGVPSRFSGSGSGTDFTLTISSLQPEDFATYHCQQYSALPWTFGQGTKVEIK

Source: US20140242083A1 (Hoffmann-La Roche, published 2014)
